Protein stability index data for 53 sequences are collected here from the supplement of paper PMC10567573.

The data set can be described thus: protein stability index of a GFP-peptide fusion (GPS, HEK-293T) (PSI 1-6); higher = more stable. The note with it: c terminus: a fixed tail appended.

± gives the standard deviation.
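Also: 24-mer peptide tiles fused after GFP, lentivirally expressed, FACS-sorted into six equal bins by GFP/DsRed ratio, decoded by Illumina sequencing, PSI is the read-weighted mean bin number.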

For GLSQGLVDREKGLSAEPGWQAKRE [CHGA], the protein stability index came to 4.92 ± 0.29 (treatment: DMSO) and 4.84 ± 0.4 (treatment: MLN4924 1 uM, 8 h).
For GLVDFRDVALALAALDGGRSLEEL [LPCAT4] the same measures were 2.51 ± 0.34 and 3.17 ± 0.33.
Consider GPAGGLADLSSGSSGEDDDFKSCP [PWWP2B], for which the protein stability index amounted to 5.43 ± 0.22 (treatment: DMSO) and 5.45 ± 0.26 (treatment: MLN4924 1 uM, 8 h).
The corresponding values for GPDDSLWDKHACPAYVGPEILSSR [TRIB3] are 3.56 ± 0.25 and 3.54 ± 0.33.
The corresponding values for GPEDLSYQIYDVSGESNSAVSTED [LARP4] are 5.39 ± 0.17 and 5.44 ± 0.13.
On to GPESPPPPYSRLSPRDEYKPLDLS [SMAD6], for which the protein stability index by setting is: (treatment: DMSO) 4.67 ± 0.15; (treatment: MLN4924 1 uM, 8 h) 4.78 ± 0.2.
Consider GPFGVNHGVELHSDVIEYAKQKLD [PCMTD2], for which the protein stability index is 3.94 ± 0.6 (treatment: DMSO) and 4.28 ± 0.25 (treatment: MLN4924 1 uM, 8 h).
On to GPGIVGNVLVDPSARIGQNCSIGP [GMPPB], for which the protein stability index (treatment: DMSO) is 3.74 ± 0.32 and the protein stability index (treatment: MLN4924 1 uM, 8 h) amounted to 3.81 ± 0.21.
Turning to GPHPKSKIENGYPLHAPEAYFPYF [CDC14A], the protein stability index was determined as 2.53 ± 0.21 (treatment: DMSO) and 2.69 ± 0.13 (treatment: MLN4924 1 uM, 8 h).
For GPILQKDYVQLENQWETPPEDLQT [ZNF449] the same measures were 4.94 ± 0.11 and 5 ± 0.28.
For GPPGSPGRAGAVGTPGERGPPGPP [EMID1] the same measures were 5.32 ± 0.84 and 4.81 ± 0.84.
Turning to GPRRLVSCLSSQSSALSQSGGGST [SPACA3], the protein stability index (treatment: DMSO) is 3.81 ± 0.22 and the protein stability index (treatment: MLN4924 1 uM, 8 h) amounted to 4 ± 0.19.
For GQLYAMELQGFWMDIGQPKDFLTG [GMPPB] the same measures were 2.01 ± 0.47 and 1.92 ± 0.13.
The corresponding values for GRKFLQKHLNASNPTEPATIIFTA [TOR1AIP2] are 2.35 ± 0.36 and 2.13 ± 0.32.
The corresponding values for GRKKYDIDPRNGIPKLTPGDNPYM [SPATS1] are 3.57 ± 0.18 and 3.71 ± 0.32.
As for GRNDLQQWIEVDARRLTRFTGVIT [CPXM2], the protein stability index by setting is: (treatment: DMSO) 2.43 ± 0.062; (treatment: MLN4924 1 uM, 8 h) 2.56 ± 0.12.
For GRRCKKCTEGPIDLVFVIDGSKSL [MATN2] the same measures were 2.06 ± 0.35 and 2.41 ± 0.44.
The corresponding values for GRRLKSPQAPDPEEEENRDSQQPG [FANCE] are 5.44 ± 0.25 and 5.67 ± 0.27.
The corresponding values for GRRYEAVKWMVVFAIGVCTGLVGL [CLCN6] are 3.33 ± 0.1 and 3.2 ± 0.092.
Take GSAGGLGSTLGGSSYSSCYSFGSG [KRT17]: the protein stability index by setting is: (treatment: DMSO) 3.29 ± 0.13; (treatment: MLN4924 1 uM, 8 h) 3.43 ± 0.33.
For GSILQFNPEVGIFVSIAQSEQESL [SMG5] the same measures were 3.07 ± 0.38 and 2.92 ± 0.18.
Regarding GSQPNSGLALESSSGLQDVTGPDN [NFE2L1], the protein stability index is, setting by setting: (treatment: DMSO) 5.45 ± 0.21; (treatment: MLN4924 1 uM, 8 h) 5.44 ± 0.3.
For GSVALGPVCPTVCPPGGIHQVTVN [KRT71] the same measures were 3.55 ± 0.34 and 3.52 ± 0.28.
For GTEQAPYGMQTQNYPKGGLLDSMC [ETS2] the same measures were 3.59 ± 0.17 and 3.84 ± 0.4.
The corresponding values for GVGGWRDYGVDPSQFSGTLMRTCE [PPTC7] are 2.81 ± 0.36 and 3.28 ± 0.74.
With GVKISEQQAEKILKSMDKNGTMTI [SLC25A25], the protein stability index by setting is: (treatment: DMSO) 3.73 ± 0.13; (treatment: MLN4924 1 uM, 8 h) 3.7 ± 0.22.
For GVRSREDAQGSEMVTCKSEFYHDE [GAN] the same measures were 5.22 ± 0.12 and 5.08 ± 0.47.
As for GWGDCVWLPYLYTLQGLYLVYHPV [DHCR7], the protein stability index worked out at 3.81 ± 0.74 (treatment: DMSO) and 3.25 ± 0.55 (treatment: MLN4924 1 uM, 8 h).
As for GYQLSDHTVGVLFNNGAHMSLLPD [PLK2], the protein stability index is, setting by setting: (treatment: DMSO) 3.08 ± 0.2; (treatment: MLN4924 1 uM, 8 h) 3.14 ± 0.081.
For the sequence HAFPVVTENRGNEKEFMKGNQLIS [CLCN6], the protein stability index stood at 4.08 ± 0.078 (treatment: DMSO) and 4.12 ± 0.067 (treatment: MLN4924 1 uM, 8 h).
For HCNLFVYSSSKGSLRLCDMRAAAL [PPP2R2C] the same measures were 2.6 ± 0.69 and 2.63 ± 0.35.
The corresponding values for HDIIKHPMDLSTVKRKMDGREYPD [BRD3] are 5.02 ± 0.19 and 5.1 ± 0.11.
The corresponding values for HESVCKYYLCGFCPAELFTNTRSD [LUC7L3] are 2.17 ± 0.33 and 2.54 ± 0.29.
HGAHKHHPIEEAAEEHREKLLKQM [TRIM43] gave a protein stability index (treatment: DMSO) of 5.17 ± 0.24 and a protein stability index (treatment: MLN4924 1 uM, 8 h) of 5.14 ± 0.14.
The corresponding values for HHDKVQSLCYLQLTRQLVSCSSDG [WDFY1] are 2.2 ± 0.36 and 2.06 ± 0.28.
The corresponding values for HKQLLLFHNAVSAYFAGNQKQLEQ [ARFIP2] are 2.19 ± 0.45 and 2.17 ± 0.18.
As to HLEVKFMNPYNAVLTKKFQVTMRG [FBXO39], the protein stability index was 2.17 ± 0.22 (treatment: DMSO) and 2.28 ± 0.22 (treatment: MLN4924 1 uM, 8 h).
For HLKKVASRYQNNIKNDKYGPWLEW [PRIM1] the same measures were 2.23 ± 0.38 and 2.3 ± 0.25.
The corresponding values for HLVPVIEMWADQLTSLKDLYKSLK [CEP70] are 2.47 ± 0.5 and 2.32 ± 0.39.
For HMLLNTTLNIKETDSKELSMAKEV [ZBED1] the same measures were 4.26 ± 0.17 and 4.35 ± 0.2.
Turning to HPAFLPQRQAIKGAFYRRAQRLRP [KCNG1], the protein stability index was 3.32 ± 0.37 (treatment: DMSO) and 3.58 ± 0.33 (treatment: MLN4924 1 uM, 8 h).
For HPVNPPYYIPLVELVPHPETAPTT [CRYL1] the same measures were 3.51 ± 0.33 and 3.51 ± 0.22.
The corresponding values for HQGEEEGPLDIWAVVKPGNTKEKI [FBXO34] are 4.6 ± 0.15 and 4.76 ± 0.27.
For HRDSSQAIPITELTKSQVQDKPYK [ZNF8] the same measures were 4.96 ± 0.2 and 5.1 ± 0.3.
For HRLKLRLAIQEMVSLTSPSAPPTS [PPFIA4], the protein stability index reads like this: (treatment: DMSO) 2.5 ± 0.43; (treatment: MLN4924 1 uM, 8 h) 2.46 ± 0.24.
For HRLLNMARNNNDPGRLTEALCLEV [RNF180] the same measures were 3.89 ± 0.33 and 3.96 ± 0.28.
For HRRFCELLPQEQRSVESSLRAQVP [CIB1] the same measures were 3.63 ± 0.13 and 3.66 ± 0.15.
On to HRTHTGERPYGCDECEKAYFYMSC [ZNF649], for which the protein stability index runs as follows: (treatment: DMSO) 2.68 ± 0.17; (treatment: MLN4924 1 uM, 8 h) 2.54 ± 0.26.
HRWPSNMYLKQLAEYRKYIHSRKC [RHOBTB3]: the protein stability index reads like this: (treatment: DMSO) 2.75 ± 0.37; (treatment: MLN4924 1 uM, 8 h) 3.19 ± 0.27.
For HSGEKPFICKECGKAYGWCSELIR [ZNF232] the same measures were 2.22 ± 0.25 and 2.72 ± 0.66.
The corresponding values for HTEERPFKCNYCGKSFRQRPSLVI [ZNF449] are 2.37 ± 0.15 and 2.44 ± 0.28.
For HVAAAVLRIRSVEGRKKAFSTCGS [OR3A1] the same measures were 2.3 ± 0.24 and 2.22 ± 0.34.
Take HVYIGSAGLDWQSLGQMKELGVIF [PLD5]: the protein stability index was 2.49 ± 0.71 (treatment: DMSO) and 2.58 ± 1.1 (treatment: MLN4924 1 uM, 8 h).
